This note sets out measurements from the supplement of paper PMC7877785.

The nature of the data set: self-splicing fitness, log relative to wild type (ln ratio); higher = more splicing; Tetrahymena group I intron in knt gene, E. coli kanamycin selection, DiMSum; sequences stand for … in CUCUCU…GGAGGGAAAAGUUAUCAGGCAUGCACCUGGUAGCUAGUCUUUAAACCAAUAGAUUGCAUCGGUUUAAAAGGCAAGACCGUCAAAUUGCGGGAAAGGGGUCAACAGCCGUUCAGUACCAAGUCUCAGGGGAAACUUUGAGAUGGCCUUGCAAAGGGUAUGGUAAUAAGCUGACGGACAUGGUCCUAACCACGCAGCCAAGUCCUAAGUCAACAGAUCUUCUGUUGAUAUGGAUGCAGUUCACAGACUAAAUGUCGGUCGGGGAAGAUGUAUUCUUCUCAUAAGAUAUAGUCGGACCUCUCCUUAAUGGGAGCUAGCGGAUGAAGUGAUGCAACACUGGAGCCGCUGGGAACUAAUUUGUAUGCGAAAGUAUAUUGAUUAGUUUUGGAGUACUCGUGGUCG
The gist of the method: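 A randomised library covering all eight P1ex-region intron nucleotides was built with the intron in the knt kanamycin-resistance gene on pET-22b(+) and held in E. coli BL21(DE3). Cells were grown overnight at 37°C or 30°C on LB agar, with or without 25 μg/mL kanamycin, plus 100 μg/mL carbenicillin, 50 μM IPTG and 0.2% rhamnose, and pooled colonies were amplicon-sequenced on an Illumina HiSeq 2500. DiMSum fitness is the error-weighted combination of wild-type-normalised replicate fold changes, kanamycin versus none.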

± gives the uncertainty stated by the source.

As for CACCAGCAAUAUUACGUGGG, the “self-splicing fitness (ln)” value is -3.41 ± 0.095 (30 °C) and -3.03 ± 0.12 (37 °C). For UGUGAGCAAUAUUACGUGAU, under “30 °C”, the “self-splicing fitness (ln)” value was -5.21 ± 0.36. As for GCGCAGCAAUAUUACGGGUA, the “self-splicing fitness (ln)” value was -2.4 ± 0.13 (30 °C) and -1.59 ± 0.1 (37 °C). The like results for ACAUAGCAAUAUUACGCAUU were, in that order, -3.32 ± 0.11 and -2.46 ± 0.13. The like results for GGACAGCAAUAUUACGCGGG were, in that order, -2.52 ± 0.1 and -0.903 ± 0.091.

Regarding AAUUAGCAAUAUUACGUUUA, the “self-splicing fitness (ln)” value is, setting by setting: (30 °C) -1.6 ± 0.12; (37 °C) -0.975 ± 0.12.

As for GGGGAGCAAUAUUACGGUAC, the “self-splicing fitness (ln)” value (37 °C) was determined as 0.506 ± 0.25. Turning to AUAAAGCAAUAUUACGGUCC, the “self-splicing fitness (ln)” value (30 °C) was -0.883 ± 0.14 and the “self-splicing fitness (ln)” value (37 °C) is -0.458 ± 0.17. For CAGAAGCAAUAUUACGAAAA the same measures were -4.31 ± 0.46 and -2.65 ± 0.21. The like results for GUAGAGCAAUAUUACGUACA were, in that order, -0.971 ± 0.11 and -1.12 ± 0.17. For the sequence CAGGAGCAAUAUUACGCCGG, the “self-splicing fitness (ln)” value (37 °C) was -2.22 ± 0.24.

With CUUGAGCAAUAUUACGCGAU, under “37 °C”, the “self-splicing fitness (ln)” value was 1.12 ± 0.27. For the sequence CGAAAGCAAUAUUACGUGUU, the “self-splicing fitness (ln)” value (30 °C) is -4.1 ± 0.18 and the “self-splicing fitness (ln)” value (37 °C) was -2.54 ± 0.17. The like results for AGGCAGCAAUAUUACGGUCC were, in that order, -1.61 ± 0.15 and -1.64 ± 0.26. UCGUAGCAAUAUUACGACGG: the “self-splicing fitness (ln)” value by setting is: (30 °C) -2.04 ± 0.2; (37 °C) -0.573 ± 0.19. Consider AGGUAGCAAUAUUACGCUAA, for which the “self-splicing fitness (ln)” value was -1.66 ± 0.018 (30 °C) and -0.802 ± 0.035 (37 °C). The like results for UAACAGCAAUAUUACGAAAC were, in that order, -4.62 ± 0.38 and -2.75 ± 0.36. GUGGAGCAAUAUUACGAUAC: the “self-splicing fitness (ln)” value is -1.47 ± 0.26 (30 °C) and -0.631 ± 0.42 (37 °C). The like results for CUGCAGCAAUAUUACGUAAC were, in that order, -3.31 ± 0.26 and -2.38 ± 0.29.

On to GGACAGCAAUAUUACGAGGA, for which the “self-splicing fitness (ln)” value (30 °C) was -2.32 ± 0.2 and the “self-splicing fitness (ln)” value (37 °C) is -1.85 ± 0.16. The like results for GCGGAGCAAUAUUACGAGCG were, in that order, -1.01 ± 0.17 and 0.152 ± 0.35. For AGGUAGCAAUAUUACGCAAG the same measures were -2.25 ± 0.018 and -1.26 ± 0.034. Take CAGAAGCAAUAUUACGUGAU: the “self-splicing fitness (ln)” value is, setting by setting: (30 °C) -2.97 ± 0.14; (37 °C) -1.26 ± 0.11. The like results for AGCCAGCAAUAUUACGUGAC were, in that order, -3.29 ± 0.17 and -2.05 ± 0.19. UCCUAGCAAUAUUACGCAAC: the “self-splicing fitness (ln)” value runs as follows: (30 °C) -2.76 ± 0.21; (37 °C) -3.38 ± 0.42. For UUCAAGCAAUAUUACGUCCU the same measures were -1.99 ± 0.12 and -1.04 ± 0.14. For CGACAGCAAUAUUACGCACG the same measures were -3.74 ± 0.4 and -2.31 ± 0.35. The like results for ACCGAGCAAUAUUACGCCCU were, in that order, -2.6 ± 0.25 and 0.248 ± 0.21. As to ACUCAGCAAUAUUACGUCAU, the “self-splicing fitness (ln)” value by setting is: (30 °C) -1.29 ± 0.068; (37 °C) -0.61 ± 0.088. For CUAAAGCAAUAUUACGUACU the same measures were -3.28 ± 0.17 and -2.57 ± 0.22. The like results for AGAUAGCAAUAUUACGUAUU were, in that order, -2.63 ± 0.14 and -1.35 ± 0.12. The like results for AUUCAGCAAUAUUACGUACC were, in that order, -0.843 ± 0.061 and -0.514 ± 0.089. With CAAUAGCAAUAUUACGACGC, the “self-splicing fitness (ln)” value (30 °C) was -2.73 ± 0.19 and the “self-splicing fitness (ln)” value (37 °C) was -0.616 ± 0.17. As for GCAAAGCAAUAUUACGAGCU, the “self-splicing fitness (ln)” value is, setting by setting: (30 °C) -3.48 ± 0.16; (37 °C) -1.5 ± 0.12. Consider GUCAAGCAAUAUUACGCAGC, for which the “self-splicing fitness (ln)” value (37 °C) is -3.49 ± 0.35. On to GAUGAGCAAUAUUACGGAUU, for which the “self-splicing fitness (ln)” value reads like this: (30 °C) -3.44 ± 0.44; (37 °C) -1.68 ± 0.2.

Take CUAUAGCAAUAUUACGUGAC: the “self-splicing fitness (ln)” value by setting is: (30 °C) -1.2 ± 0.15; (37 °C) -0.55 ± 0.16. For CCGUAGCAAUAUUACGCGUG the same measures were -2.72 ± 0.15 and -1.22 ± 0.12.

With CCGCAGCAAUAUUACGGUAU, the “self-splicing fitness (ln)” value is -4.73 ± 0.23 (30 °C) and -3.44 ± 0.17 (37 °C).
